Experimental data from the supplement of paper PMC9112550, “Optimization of the antimicrobial peptide Bac7 by deep mutational scanning” (BMC Biology, 2022).
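Further: peptides expressed intracellularly from a pBAD plasmid library in pooled LB shake-flask culture, induced with 0.3% L-arabinose, DNA abundance read by NGS, three biological replicates, DESeq2 with apeglm shrinkage.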

The sequences below were run on Escherichia coli TOP10 (assay: shrunken log2 fold change of peptide-encoding DNA abundance (4.5 h post-induction vs induction); higher = less antimicrobial activity (less host growth inhibition)). Details: time post-induction: 4.5 h; library: site-saturation at positions 5, 18, 19, 20.
With RRIRWRPPRLPRPRPRPYHVPRP the “shrunken log2 fold change” value was -0.141. In the case of RRIRWRPPRLPRPRPRPYIEPRP, the “shrunken log2 fold change” value is reported as -0.629. In the case of RRIRWRPPRLPRPRPRPYMTPRP, the “shrunken log2 fold change” value is reported as -0.877. For RRIRWRPPRLPRPRPRPYPAPRP, the “shrunken log2 fold change” value was -0.0239. In the case of RRIRWRPPRLPRPRPRPYPNPRP, the “shrunken log2 fold change” value is reported as -0.58. In the case of RRIRWRPPRLPRPRPRPYPWPRP, the “shrunken log2 fold change” value is reported as -0.156. RRIRWRPPRLPRPRPRPYQIPRP was tested, and the “shrunken log2 fold change” value was 0.0326. With RRIRWRPPRLPRPRPRPYQYPRP the “shrunken log2 fold change” value was -0.0756. RRIRWRPPRLPRPRPRPYRCPRP was tested, and the “shrunken log2 fold change” value was 0.0623. In the case of RRIRWRPPRLPRPRPRPYRRPRP, the “shrunken log2 fold change” value is reported as -0.0183. With RRIRWRPPRLPRPRPRPYTWPRP the “shrunken log2 fold change” value was -0.397. RRIRWRPPRLPRPRPRPYVYPRP was tested, and the “shrunken log2 fold change” value was 0.0229. For RRIRWRPPRLPRPRPRPYYGPRP, the “shrunken log2 fold change” value was -0.0686. RRIRWRPPRLPRPRPRPYYPPRP was tested, and the “shrunken log2 fold change” value was -1.09. In the case of RRIRYRPPRLPRPRPRPAAEPRP, the “shrunken log2 fold change” value is reported as 0.22. RRIRYRPPRLPRPRPRPAANPRP was tested, and the “shrunken log2 fold change” value was -0.0861. With RRIRYRPPRLPRPRPRPAAQPRP the “shrunken log2 fold change” value was 0.466. For RRIRYRPPRLPRPRPRPACNPRP, the “shrunken log2 fold change” value was -0.238. RRIRYRPPRLPRPRPRPACQPRP was tested, and the “shrunken log2 fold change” value was -0.142. RRIRYRPPRLPRPRPRPAEKPRP was tested, and the “shrunken log2 fold change” value was -0.0964. For RRIRYRPPRLPRPRPRPAFEPRP, the “shrunken log2 fold change” value was -0.0224. In the case of RRIRYRPPRLPRPRPRPAGQPRP, the “shrunken log2 fold change” value is reported as 0.00356. For RRIRYRPPRLPRPRPRPAHFPRP, the “shrunken log2 fold change” value was 0.0784. With RRIRYRPPRLPRPRPRPAHQPRP the “shrunken log2 fold change” value was 0.126. For RRIRYRPPRLPRPRPRPAITPRP, the “shrunken log2 fold change” value was -0.933. RRIRYRPPRLPRPRPRPAKPPRP was tested, and the “shrunken log2 fold change” value was -0.0319. For RRIRYRPPRLPRPRPRPALWPRP, the “shrunken log2 fold change” value was -0.0105. For RRIRYRPPRLPRPRPRPAMDPRP, the “shrunken log2 fold change” value was -0.256. With RRIRYRPPRLPRPRPRPAMHPRP the “shrunken log2 fold change” value was -0.045. For RRIRYRPPRLPRPRPRPAMRPRP, the “shrunken log2 fold change” value was 0.372. For RRIRYRPPRLPRPRPRPAMWPRP, the “shrunken log2 fold change” value was -0.0439. With RRIRYRPPRLPRPRPRPANLPRP the “shrunken log2 fold change” value was -1.19. In the case of RRIRYRPPRLPRPRPRPANNPRP, the “shrunken log2 fold change” value is reported as -0.45. For RRIRYRPPRLPRPRPRPAPGPRP, the “shrunken log2 fold change” value was 0.391. For RRIRYRPPRLPRPRPRPAQAPRP, the “shrunken log2 fold change” value was 0.0486. RRIRYRPPRLPRPRPRPAQHPRP was tested, and the “shrunken log2 fold change” value was -0.515. With RRIRYRPPRLPRPRPRPASFPRP the “shrunken log2 fold change” value was -0.138. RRIRYRPPRLPRPRPRPASPPRP was tested, and the “shrunken log2 fold change” value was -0.161. For RRIRYRPPRLPRPRPRPATAPRP, the “shrunken log2 fold change” value was 0.132. In the case of RRIRYRPPRLPRPRPRPATTPRP, the “shrunken log2 fold change” value is reported as -0.415. With RRIRYRPPRLPRPRPRPAWGPRP the “shrunken log2 fold change” value was 0.0852. In the case of RRIRYRPPRLPRPRPRPCCLPRP, the “shrunken log2 fold change” value is reported as -0.203. In the case of RRIRYRPPRLPRPRPRPCCSPRP, the “shrunken log2 fold change” value is reported as -0.141. RRIRYRPPRLPRPRPRPCDWPRP was tested, and the “shrunken log2 fold change” value was -0.0122. In the case of RRIRYRPPRLPRPRPRPCELPRP, the “shrunken log2 fold change” value is reported as -0.0555. With RRIRYRPPRLPRPRPRPCETPRP the “shrunken log2 fold change” value was 0.00591. With RRIRYRPPRLPRPRPRPCHLPRP the “shrunken log2 fold change” value was -0.019. With RRIRYRPPRLPRPRPRPCKIPRP the “shrunken log2 fold change” value was -0.116. With RRIRYRPPRLPRPRPRPCMAPRP the “shrunken log2 fold change” value was -0.117. In the case of RRIRYRPPRLPRPRPRPCMHPRP, the “shrunken log2 fold change” value is reported as -0.351. For RRIRYRPPRLPRPRPRPCNHPRP, the “shrunken log2 fold change” value was -0.213. With RRIRYRPPRLPRPRPRPCNLPRP the “shrunken log2 fold change” value was -0.958. RRIRYRPPRLPRPRPRPCQAPRP was tested, and the “shrunken log2 fold change” value was -0.269. RRIRYRPPRLPRPRPRPCQGPRP was tested, and the “shrunken log2 fold change” value was -0.0126. For RRIRYRPPRLPRPRPRPCQIPRP, the “shrunken log2 fold change” value was -0.00804. For RRIRYRPPRLPRPRPRPCQMPRP, the “shrunken log2 fold change” value was -0.255. For RRIRYRPPRLPRPRPRPCQNPRP, the “shrunken log2 fold change” value was 0.0275. With RRIRYRPPRLPRPRPRPCRCPRP the “shrunken log2 fold change” value was -0.0894. RRIRYRPPRLPRPRPRPCRQPRP was tested, and the “shrunken log2 fold change” value was -0.442. In the case of RRIRYRPPRLPRPRPRPCTLPRP, the “shrunken log2 fold change” value is reported as 0.0191. For RRIRYRPPRLPRPRPRPCTMPRP, the “shrunken log2 fold change” value was -0.347. For RRIRYRPPRLPRPRPRPCVPPRP, the “shrunken log2 fold change” value was -0.0398. With RRIRYRPPRLPRPRPRPCYMPRP the “shrunken log2 fold change” value was 0.0232. In the case of RRIRYRPPRLPRPRPRPCYRPRP, the “shrunken log2 fold change” value is reported as -0.172. For RRIRYRPPRLPRPRPRPDCFPRP, the “shrunken log2 fold change” value was -0.0906. For RRIRYRPPRLPRPRPRPDCNPRP, the “shrunken log2 fold change” value was -0.871. With RRIRYRPPRLPRPRPRPDDAPRP the “shrunken log2 fold change” value was -0.199. RRIRYRPPRLPRPRPRPDERPRP was tested, and the “shrunken log2 fold change” value was 0.0108. RRIRYRPPRLPRPRPRPDFCPRP was tested, and the “shrunken log2 fold change” value was -0.228. With RRIRYRPPRLPRPRPRPDFEPRP the “shrunken log2 fold change” value was -0.0141. With RRIRYRPPRLPRPRPRPDFIPRP the “shrunken log2 fold change” value was -0.348. With RRIRYRPPRLPRPRPRPDFYPRP the “shrunken log2 fold change” value was -1.15. In the case of RRIRYRPPRLPRPRPRPDGAPRP, the “shrunken log2 fold change” value is reported as -0.0116. With RRIRYRPPRLPRPRPRPDIIPRP the “shrunken log2 fold change” value was -0.609. RRIRYRPPRLPRPRPRPDLLPRP was tested, and the “shrunken log2 fold change” value was -0.0601. For RRIRYRPPRLPRPRPRPDNQPRP, the “shrunken log2 fold change” value was -0.644. RRIRYRPPRLPRPRPRPDPPPRP was tested, and the “shrunken log2 fold change” value was 0.0918. With RRIRYRPPRLPRPRPRPDQLPRP the “shrunken log2 fold change” value was -0.122. RRIRYRPPRLPRPRPRPDRNPRP was tested, and the “shrunken log2 fold change” value was -0.018. In the case of RRIRYRPPRLPRPRPRPDTLPRP, the “shrunken log2 fold change” value is reported as -0.195. RRIRYRPPRLPRPRPRPDTTPRP was tested, and the “shrunken log2 fold change” value was 0.0425. RRIRYRPPRLPRPRPRPDVEPRP was tested, and the “shrunken log2 fold change” value was -0.00174. For RRIRYRPPRLPRPRPRPDWMPRP, the “shrunken log2 fold change” value was 0.0748. In the case of RRIRYRPPRLPRPRPRPEAQPRP, the “shrunken log2 fold change” value is reported as 0.151. RRIRYRPPRLPRPRPRPECHPRP was tested, and the “shrunken log2 fold change” value was 0.0154. In the case of RRIRYRPPRLPRPRPRPECLPRP, the “shrunken log2 fold change” value is reported as -0.171. For RRIRYRPPRLPRPRPRPECQPRP, the “shrunken log2 fold change” value was 0.0129. With RRIRYRPPRLPRPRPRPEDLPRP the “shrunken log2 fold change” value was -0.00674. For RRIRYRPPRLPRPRPRPEFKPRP, the “shrunken log2 fold change” value was 0.0136. With RRIRYRPPRLPRPRPRPEFWPRP the “shrunken log2 fold change” value was -0.0503. With RRIRYRPPRLPRPRPRPEGQPRP the “shrunken log2 fold change” value was 0.0448. RRIRYRPPRLPRPRPRPEIWPRP was tested, and the “shrunken log2 fold change” value was 0.212. For RRIRYRPPRLPRPRPRPEIYPRP, the “shrunken log2 fold change” value was -0.279. In the case of RRIRYRPPRLPRPRPRPEKVPRP, the “shrunken log2 fold change” value is reported as -0.241. For RRIRYRPPRLPRPRPRPEMPPRP, the “shrunken log2 fold change” value was -0.0307. For RRIRYRPPRLPRPRPRPENLPRP, the “shrunken log2 fold change” value was 0.0949. With RRIRYRPPRLPRPRPRPEQLPRP the “shrunken log2 fold change” value was -0.0122. For RRIRYRPPRLPRPRPRPESRPRP, the “shrunken log2 fold change” value was -0.12. RRIRYRPPRLPRPRPRPETMPRP was tested, and the “shrunken log2 fold change” value was -0.062. With RRIRYRPPRLPRPRPRPEWKPRP the “shrunken log2 fold change” value was -0.000687. In the case of RRIRYRPPRLPRPRPRPEWWPRP, the “shrunken log2 fold change” value is reported as -0.0484. With RRIRYRPPRLPRPRPRPEYMPRP the “shrunken log2 fold change” value was -0.271. In the case of RRIRYRPPRLPRPRPRPFAPPRP, the “shrunken log2 fold change” value is reported as -0.386. In the case of RRIRYRPPRLPRPRPRPFCYPRP, the “shrunken log2 fold change” value is reported as -0.432. In the case of RRIRYRPPRLPRPRPRPFDFPRP, the “shrunken log2 fold change” value is reported as -0.409. RRIRYRPPRLPRPRPRPFFYPRP was tested, and the “shrunken log2 fold change” value was -0.614. RRIRYRPPRLPRPRPRPFLAPRP was tested, and the “shrunken log2 fold change” value was -0.649. RRIRYRPPRLPRPRPRPFMFPRP was tested, and the “shrunken log2 fold change” value was -0.861. RRIRYRPPRLPRPRPRPFMLPRP was tested, and the “shrunken log2 fold change” value was -1.19.
